Data reported in paper doi:10.1101/2024.12.06.626481 (bioRxiv, 2024).

Molecular target: murine IL-21 (mIL-21) (murine, UniProt Q9ES17 18-146)
Experiment: BLI

B1: biotinylated murine IL-21 receptor (mIL-21R) (receptor)
chain: not shown
modifications: biotinylated (site not stated)
  binding result: binds
